Laboratory results reported in patent publication US20110059888A1.
Values belong to the binder of their own block, whether it stands above or below them. [ ]: non-standard residue; d: D form. Phe(3-Me) = Cc1cccc(C[C@H](N)C(=O)O)c1; Arg(Me) = CNC(=N)NCCC[C@H](N)C(=O)O; Dap(CONH2) = NC(=O)NC[C@H](N)C(=O)O; Ala(cPr) = N[C@@H](CC1CC1)C(=O)O; Hyp = O=C(O)[C@@H]1C[C@@H](O)CN1; αMeF = C[C@](N)(Cc1ccccc1)C(=O)O; Aad = N[C@@H](CCCC(=O)O)C(=O)O; Cha = N[C@@H](CC1CCCCC1)C(=O)O; Abu = CC[C@H](N)C(=O)O; Aib = CC(C)(N)C(=O)O

Target: human OT7T175 (metastin receptor) (human) (UniProt Q969F8)
Test: cell-based or functional assay

Sequence of UniProt Q969F8 (Q969F8 whole entry L364H): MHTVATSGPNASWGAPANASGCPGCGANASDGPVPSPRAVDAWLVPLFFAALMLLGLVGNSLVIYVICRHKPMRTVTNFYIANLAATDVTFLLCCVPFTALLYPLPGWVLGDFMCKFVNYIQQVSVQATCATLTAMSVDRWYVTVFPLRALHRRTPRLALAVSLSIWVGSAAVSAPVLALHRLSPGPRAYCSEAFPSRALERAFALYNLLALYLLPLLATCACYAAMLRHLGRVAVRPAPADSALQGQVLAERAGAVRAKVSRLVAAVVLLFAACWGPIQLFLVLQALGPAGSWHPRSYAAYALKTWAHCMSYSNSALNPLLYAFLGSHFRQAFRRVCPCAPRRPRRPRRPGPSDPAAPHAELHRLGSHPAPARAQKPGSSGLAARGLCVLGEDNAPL

Binder: Ac-[dY]ENTFGL[Arg(Me)]W-NH2 (also: Gly7-Leu8 amide bond replaced by (E)-CH═CH-) [des(1)-Ac-[D-Tyr2,Glu3,Thr5,Gly7Ψ((E)CH═CH)Leu8,Arg(Me)9,Trp10]MS10]
- Specific Activity (EC50 of test compound based on EC50 of Metastin (45-54); intracellular calcium, FLIPR) (ratio to EC50 of Metastin (45-54)): 0.6

Binder: Ac-[dY][Hyp]NTF[Abu]L[Arg(Me)]W-NH2 [des(1)-Ac-[D-Tyr2,Hyp3,Thr5,Abu7,Arg(Me)9,Trp10]MS10]
- Specific Activity (EC50 of test compound based on EC50 of Metastin (45-54); intracellular calcium, FLIPR) (ratio to EC50 of Metastin (45-54)): 1

Binder: Ac-[dY][Hyp]NTFAL[Arg(Me)]W-NH2 [des(1)-Ac-[D-Tyr2,Hyp3,Thr5,Ala7,Arg(Me)9,Trp10]MS10]
- Specific Activity (EC50 of test compound based on EC50 of Metastin (45-54); intracellular calcium, FLIPR) (ratio to EC50 of Metastin (45-54)): 0.5

B2: des(1)-Ac-[D-Tyr2,Aib3,Thr5,Cha6,Ala(cPr)8,Arg(Me)9,Trp10]MS10 (peptide)
peptide: Ac-[dY][Aib]NT[Cha]G[Ala(cPr)][Arg(Me)]W-NH2
SMILES: CNC(=N)NCCC[C@H](NC(=O)[C@H](CC1CC1)NC(=O)CNC(=O)[C@H](CC1CCCCC1)NC(=O)[C@@H](NC(=O)[C@H](CC(N)=O)NC(=O)C(C)(C)NC(=O)[C@@H](Cc1ccc(O)cc1)NC(C)=O)[C@@H](C)O)C(=O)N[C@@H](Cc1c[nH]c2ccccc12)C(N)=O
- Specific Activity (EC50 of test compound based on EC50 of Metastin (45-54); intracellular calcium, FLIPR) (ratio to EC50 of Metastin (45-54)): 0.6

Binder: Ac-[dY][Hyp]QT[Cha]GL[Arg(Me)]W-NH2 (also: Gly7Ψ((E)CH═CH)Leu8: amide between Gly and Leu replaced by (E) alkene) [des(1)-Ac-[D-Tyr2,Hyp3,Gln4,Thr5,Cha6,Gly7Ψ((E)CH═CH)Leu8,Arg(Me)9,Trp10]MS10]
- Specific Activity (EC50 of test compound based on EC50 of Metastin (45-54); intracellular calcium, FLIPR) (ratio to EC50 of Metastin (45-54)): 1.4

B3: des(1)-Ac-[D-Tyr2,Aad3,Thr5,Cha6,Ala(cPr)8,Arg(Me)9,Trp10]MS10 (peptide)
peptide: Ac-[dY][Aad]NT[Cha]G[Ala(cPr)][Arg(Me)]W-NH2
SMILES: CNC(=N)NCCC[C@H](NC(=O)[C@H](CC1CC1)NC(=O)CNC(=O)[C@H](CC1CCCCC1)NC(=O)[C@@H](NC(=O)[C@H](CC(N)=O)NC(=O)[C@H](CCCC(=O)O)NC(=O)[C@@H](Cc1ccc(O)cc1)NC(C)=O)[C@@H](C)O)C(=O)N[C@@H](Cc1c[nH]c2ccccc12)C(N)=O
- Specific Activity (EC50 of test compound based on EC50 of Metastin (45-54); intracellular calcium, FLIPR) (ratio to EC50 of Metastin (45-54)): 1.1

Binder: Ac-[dY]E[Dap(CONH2)]TFGL[Arg(Me)]W-NH2 (also: Gly7-Leu8 amide bond replaced by (E)-CH═CH-) [des(1)-Ac-[D-Tyr2,Glu3,Alb4,Thr5,Gly7Ψ((E)CH═CH)Leu8,Arg(Me)9,Trp10]MS10]
- Specific Activity (EC50 of test compound based on EC50 of Metastin (45-54); intracellular calcium, FLIPR) (ratio to EC50 of Metastin (45-54)): 0.5

More lines, now with the values ahead:

- Specific Activity (EC50 of test compound based on EC50 of Metastin (45-54); intracellular calcium, FLIPR) (ratio to EC50 of Metastin (45-54)): 0.6
Binder: Ac-[dY][Hyp]NT[Cha]GL[Arg(Me)]W-NH2 (also: Gly6-Leu7 amide replaced by (E)CH=CH) [des(1)-Ac-[D-Tyr2,Hyp3,Thr5,Cha6,Gly7Ψ((E)CH═CH)Leu8,Arg(Me)9,Trp10]MS10]

- Specific Activity (EC50 of test compound based on EC50 of Metastin (45-54); intracellular calcium, FLIPR) (ratio to EC50 of Metastin (45-54)): 3.5
Binder: Ac-[dY][Hyp]NT[Cha]G[Cha][Arg(Me)]W-NH2 [des(1)-Ac-[D-Tyr2,Hyp3,Thr5,Cha6,8,Arg(Me)9,Trp10]MS10]

- Specific Activity (EC50 of test compound based on EC50 of Metastin (45-54); intracellular calcium, FLIPR) (ratio to EC50 of Metastin (45-54)): 3.8
B1: des(1)-Ac-[D-Tyr2,Hyp3,Thr5,αMePhe6,Arg(Me)9,Trp10]MS10 (peptide)
peptide: Ac-[dY][Hyp]NT[αMeF]GL[Arg(Me)]W-NH2
SMILES: CNC(=N)NCCC[C@H](NC(=O)[C@H](CC(C)C)NC(=O)CNC(=O)[C@](C)(Cc1ccccc1)NC(=O)[C@@H](NC(=O)[C@H](CC(N)=O)NC(=O)[C@@H]1C[C@@H](O)CN1C(=O)[C@@H](Cc1ccc(O)cc1)NC(C)=O)[C@@H](C)O)C(=O)N[C@@H](Cc1c[nH]c2ccccc12)C(N)=O

- Specific Activity (EC50 of test compound based on EC50 of Metastin (45-54); intracellular calcium, FLIPR) (ratio to EC50 of Metastin (45-54)): 0.8
Binder: Ac-[dY][Hyp]NTFGL[Arg(Me)]W-NH2 (also: Phe5-Gly6 amide replaced by (R)CHOH-CH2) [des(1)-Ac-[D-Tyr2,Hyp3,Thr5,Phe6Ψ((R)CHOH-CH2)Gly7,Arg(Me)9,Trp10]MS10]

- Specific Activity (EC50 of test compound based on EC50 of Metastin (45-54); intracellular calcium, FLIPR) (ratio to EC50 of Metastin (45-54)): 0.5
Binder: Ac-[dY][Hyp]NT[Cha]G[Ala(cPr)][Arg(Me)]W-NH2 [des(1)-Ac-[D-Tyr2,Hyp3,Thr5,Cha6,Ala(cPr)8,Arg(Me)9,Trp10]MS10]

- Specific Activity (EC50 of test compound based on EC50 of Metastin (45-54); intracellular calcium, FLIPR) (ratio to EC50 of Metastin (45-54)): 0.8
Binder: Ac-[dY][Hyp]NT[Phe(3-Me)]GL[Arg(Me)]W-NH2 [des(1)-Ac-[D-Tyr2,Hyp3,Thr5,Phe(3Me)6,Arg(Me)9,Trp10]MS10]

- Specific Activity (EC50 of test compound based on EC50 of Metastin (45-54); intracellular calcium, FLIPR) (ratio to EC50 of Metastin (45-54)): 0.8
Binder: Ac-[dY][Hyp]NTFG[Ala(cPr)][Arg(Me)]W-NH2 [des(1)-Ac-[D-Tyr2,Hyp3,Thr5,Ala(cPr)8,Arg(Me)9,Trp10]MS10]

- Specific Activity (EC50 of test compound based on EC50 of Metastin (45-54); intracellular calcium, FLIPR) (ratio to EC50 of Metastin (45-54)): 0.8
Binder: Ac-[dY][Hyp]NTFGL[Arg(Me)]W-NH2 (also: Gly6-Leu7 amide replaced by CH2CH2) [des(1)-Ac-[D-Tyr2,Hyp3,Thr5,Gly7Ψ(CH2CH2)Leu8,Arg(Me)9,Trp10]MS10]
